IntAct's records for PubMed 12655004

B1: U3 small nucleolar ribonucleoprotein protein IMP4 (Homo sapiens), Q96G21 (parent)
chain: MLRREARLRREYLYRKAREEAQRSAQERKERLRRALEENRLIPTELRREALALQGSLEFDDAGGEGVTSHVDDEYRWAGVEDPKVMITTSRDPSSRLKMFAKELKLVFPGAQRMNRGRHEVGALVRACKANGVTDLLVVHEHRGTPVGLIVSHLPFGPTAYFTLCNVVMRHDIPDLGTMSEAKPHLITHGFSSRLGKRVSDILRYLFPVPKDDSHRVITFANQDDYISFRHHVYKKTDHRNVELTEVGPRFELKLYMIRLGTLEQEATADVEWRWHPYTNTARKRVFLSTE
partner: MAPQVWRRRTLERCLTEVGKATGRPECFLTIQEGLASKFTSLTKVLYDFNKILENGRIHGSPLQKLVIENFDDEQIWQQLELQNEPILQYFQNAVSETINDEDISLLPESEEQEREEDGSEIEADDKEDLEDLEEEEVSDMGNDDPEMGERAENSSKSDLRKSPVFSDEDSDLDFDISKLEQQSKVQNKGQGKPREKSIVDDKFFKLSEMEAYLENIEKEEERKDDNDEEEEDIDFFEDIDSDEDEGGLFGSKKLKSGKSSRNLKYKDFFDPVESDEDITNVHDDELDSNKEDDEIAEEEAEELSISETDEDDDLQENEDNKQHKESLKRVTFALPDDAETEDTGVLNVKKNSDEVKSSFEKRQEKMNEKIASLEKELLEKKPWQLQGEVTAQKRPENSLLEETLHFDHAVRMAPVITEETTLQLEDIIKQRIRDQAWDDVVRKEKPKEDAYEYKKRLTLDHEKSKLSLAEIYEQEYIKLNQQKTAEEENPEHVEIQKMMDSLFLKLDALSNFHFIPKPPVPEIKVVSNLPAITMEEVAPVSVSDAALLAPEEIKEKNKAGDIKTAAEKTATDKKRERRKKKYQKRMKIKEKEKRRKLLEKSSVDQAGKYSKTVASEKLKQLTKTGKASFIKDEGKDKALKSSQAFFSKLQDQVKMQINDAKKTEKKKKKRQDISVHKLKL

Variants of: B1
Conditions: with mpp10_human MPHOSPH10, O00566

Variant | effect of a mutation on the interaction
T159A;F162A | disrupting interaction strength
E246A;R250A | disrupting interaction strength
